The values that follow come from US20210380637A1.

The target of experiment [1] is human serum-derived γ-globulin (Sigma-Aldrich). Put plainly: DBC on peptide-immobilized column after 1 wash cycle with 0.1 M NaOH.
Experiment [2] has the same target. Put plainly: DBC on peptide-immobilized column after 10 wash cycles with 0.1 M NaOH.
Experiment [3] shares this target. In words: DBC on peptide-immobilized column, 0 NaOH wash cycles.
Experiment [4] shares this target. In words: DBC on peptide-immobilized column, 0 NaOH wash cycles (reference).
Experiment [5] shares this target. Put plainly: DBC on peptide-immobilized column after 5 wash cycles with 0.1 M NaOH.
Experiment [6] has the same target. In words: DBC on peptide-immobilized column after 2 wash cycles with 0.1 M NaOH.
For experiment [7] the target is unchanged. In words: column chromatography, peptide immobilized on 1 mL NHS-activated column, 1 mg/mL human γ-globulin at 1 mL/min.
Experiment [8] addresses human IgG. Put plainly: SPR (BIAcore T200), human IgG immobilized on chip, peptide injected at 15.6-1000 nM.

Bridges are numbered along the chain shown (N, C = ends).

On to {NH2‑PEG4}-GPDCAYHRGELVWCTFH-NH2 (disulfide 4-14), for which the DBC 10% in experiment [1] turned out to be 12.4 mg/mL; in experiment [2] it was 6.1 mg/mL; in experiment [3] it was 13.5 mg/mL; in experiment [5], 8.9 mg/mL; in experiment [6], 11.5 mg/mL. The DBC 10% (% NaOH wash cycle 0) amounted to 91.9% in experiment [1]; 45.2% in experiment [2]; 100% in experiment [4]; 65.9% in experiment [5]; 85.2% in experiment [6].
In general, Kd refers to the free concentration of one partner at which half of the binding sites on the other are occupied at equilibrium, for simple one-to-one binding. A low value points to higher affinity. One may read the koff as the rate constant with which the complex falls apart. A higher koff goes with fast dissociation. {NH2‑PEG4}-GPDCAYHRGELVWCTFH-NH2 (linker 4-14 via 1,3‑dichloro‑2‑propanone) returned a DBC (dynamic binding capacity, 10% breakthrough) in experiment [7] of 2.3 mg/mL-column. In experiment [8], this molecule gave a dissociation constant (Kd) of 4900 nM and an off-rate (koff) of 0.005 s⁻¹.

B1: cross-linked cyclic peptide of Example 1 (N-terminal PEG4-modified, C-terminal amidated …, the two outer cysteine residues linked as in formula CHEM-US-00008) (peptide)
peptide: GPDCAYHRGELVWCTFH
modifications: N-terminal H2N-PEG4; C-terminal amide; position 4 built as homoserine (Hse), its side-chain hydroxyl chlorinated and reacted with Cys 14, so that the two outer cysteine positions (4 and 14) are joined by the linker of drawing CHEM-US-00008 instead of a disulfide
The term kon denotes a measure of how fast the partners come together. Low values mean slow association, high ones fast association. In the case of B1, the DBC (dynamic binding capacity, 10% breakthrough) in experiment [7] was 9.4 mg/mL-column. Further, the Kd in experiment [8] amounted to 340 nM. This molecule registered a koff in experiment [8] of 0.22 s⁻¹. The kon in experiment [8] was determined as 650000 M⁻¹ s⁻¹. In addition, the DBC 10% in experiment [1] worked out at 9.5 mg/mL; in experiment [2], 8.9 mg/mL; in experiment [3] it was 9.4 mg/mL; in experiment [5] it was 9.2 mg/mL; in experiment [6], 9.4 mg/mL. For the same molecule, the DBC 10% (% NaOH wash cycle 0) is 101% in experiment [1]; 94.7% in experiment [2]; 100% in experiment [4]; 97.9% in experiment [5]; 100% in experiment [6].
